{"source": "patent US20030143656A1", "about": "(published 2003)", "binders": {"B1": {"name": "full length S6K1 mutant in which Thr412 and all five phosphorylated C-terminal residues were mutated to acidic residues (enzyme, human, UniProt P23443 1-525, looked up)", "chain": "MRRRRRRDGFYPAPDFRDREAEDMAGVFDIDLDQPEDAGSEDELEEGGQLNESMDHGGVGPYELGMEHCEKFEISETSVNRGPEKIRPECFELLRVLGKGGYGKVFQVRKVTGANTGKIFAMKVLKKAMIVRNAKDTAHTKAERNILEEVKHPFIVDLIYAFQTGGKLYLILEYLSGGELFMQLEREGIFMEDTACFYLAEISMALGHLHQKGIIYRDLKPENIMLNHQGHVKLTDFGLCKESIHDGTVTHTFCGTIEYMAPEILMRSGHNRAVDWWSLGALMYDMLTGAPPFTGENRKKTIDKILKCKLNLPPYLTQEARDLLKKLLKRNAASRLGAGPGDAGEVQAHPFFRHINWEELLARKVEPPFKPLLQSEEDVSQFDSKFTRQTPVDSPDDSTLSESANQVFLGFEYVAPSVLESVKEKFSFEPKIRDPRRFIGDPREPVDPVKFDPGDFWGRGASASTANPQTPVEYPMETSGIEQMDVTMSGEASAPLPIRQPNSGPYKKQAFPMISKRPEHLRMNL", "notes": "mature"}, "B2": {"name": "GST-PDK1 K115A (enzyme, not shown: a dimerising Fc or GST; small tags and cut ends)", "chain": "MARTTSQLYDAVPIQSSVVLCSCPSPSMVRTQTESSTPPGIPGGSRQGPAMDGTAAEPRPGAGSLQHAQPPPQPRKKRPEDFKFGKILGEGSFSTVVLARELATSREYAIKILEARHIIKENKVPYVTRERDVMSRLDHPFFVKLYFTFQDDEKLYFGLSYAKNGELLKYIRKIGSFDETCTRFYTAEIVSALEYLHGKGIIHRDLKPENILLNEDMHIQITDFGTAKVLSPESKQARANSFVGTAQYVSPELLTEKSACKSSDLWALGCIIYQLVAGLPPFRAGNEYLIFQKIIKLEYDFPEKFFPKARDLVEKLLVLDATKRLGCEEMEGYGPLKAHPFFESVTWENLHQQTPPKLTAYLPAMSEDDEDCYGNYDNLLSQFGCMQVSSSSSSHSLSASDTGLPQRSGSNIEQYIHDLDSNSFELDLQFSEDEKRLLLEKQAGGNPWHQFVENNLILKMGPVDKRKGLFARRRQLLLTEGPHLYYVDPVNKVLKGEIPWSQELRPEAKNFKTFFVHTPNRTYYLMDPSGNAHKWCRKIQEVWRQRYQSHPDAAVQ"}, "B3": {"name": "GST-PDK1 Q150A (enzyme, human, UniProt O15530 1-556, looked up)", "chain": "B2 chain with A115K, Q150A", "notes": "range 1-556; not shown: N-terminal GST tag, pEBG2T vector"}, "B4": {"name": "GST-PDK1 L155A (enzyme, human, UniProt O15530 1-556, looked up)", "chain": "B2 chain with A115K, L155A", "notes": "as for B3"}, "B5": {"name": "PIFtide (peptide)", "peptide": "REPRILSEEEQEMFRDFDYIADWC"}}, "key": {"GST-PDK1 L155E": {"molecular_target": "T1, GST-PDK1 L155E (human, UniProt O15530 1-556)", "T1 construct": "range 1-556; not shown: N-terminal GST tag, pEBG2T vector", "T1 sequence (looked up)": "B2 chain with A115K, L155E", "assay": "binding experiment not described (presumably pull-down)", "method": "Binding of PDK1 to SGK1 and S6K1. For the data presented in FIG. 22, 293 cells were cotransfected with 10 μg of the wild type or mutant PDK1 plasmid and 10 μg of either the wild type or mutant S6K1 or SGK1. 36 h post-transfection the cells were lysed in 0.6 ml of Buffer A and the lysates were cleared by centrifugation at 13 000×g for 10 min at 2° C., and 0.5 ml of supernatant was incubated for 2 h at 4° C. with 30 μl of glutathione-Sepharose. The beads were washed twice in Buffer A containing 0.5 M NaCl, followed by two further washes in Buffer A. The beads were resuspended in 30 μl Laemmli Sample Buffer and subjected to SDS polyacrylamide gel electrophoresis. The gels were either stained with Coomassie blue, or analysed by immunoblotting with either anti-Flag or anti-Myc antibodies (described below).\nInteraction of S6K1 and SGK1 with PDK1. […] We therefore tested whether this could be explained by the inability of full length S6K1 to interact with PDK1. To test this hypothesis we coexpressed in 293 cells GST-PDK1 together with full length S6K1, fill length S6K1[T412E] and the C-terminal truncated forms of these mutants (S6K1-T2 and S6K1-T2[T412E]) which have Flag epitope tags. Glutathione-Sepharose “pull-downs” of GST-PDK1 from these extracts were immunoblotted for the presence of Flag epitope tagged S6K1. […] S6K1-T2[T412E] interacted moderately better with GST-PDK1 compared to S6K1-T2."}, "GST-PDK1 (wild type)": {"molecular_target": "T2, GST-PDK1 (wild type) (human, UniProt O15530 1-556)", "T2 sequence (looked up)": "B2 chain with A115K", "assay": "cell-based or functional assay"}, "PIFtide [1]": {"molecular_target": "B5", "assay": "method not stated (reference mark lost)"}, "PIFtide [2]": {"molecular_target": "B5", "assay": "method not stated (unpublished data)"}, "GST-PDK1 Q150A": {"molecular_target": "B3", "assay": "cell-based or functional assay"}, "GST-PDK1 K115A": {"molecular_target": "B2", "assay": "cell-based or functional assay"}, "GST-PDK1 L155A": {"molecular_target": "B4", "assay": "cell-based or functional assay"}}, "note": "Substitutions are numbered along the chain they refer to. In names and notes the source's numbering stands."}
{"binder": "B1", "values": [{"measurement": "binding result", "setting": "GST-PDK1 L155E", "value": "no binding"}]}
{"binder": "REPRILSEEEQEMFRDFAYLADWC", "note": "[D978A-PIFtide]", "values": [{"measurement": "fold decrease in activation of PDK1 towards T308tide, against wild type PIFtide", "setting": "GST-PDK1 (wild type)", "value": 8, "unit": "fold"}]}
{"binder": "B2", "values": [{"measurement": "fold decrease in affinity for PIFtide", "setting": "PIFtide [1]", "value": "~10", "unit": "fold"}]}
{"binder": "B3", "values": [{"measurement": "fold decrease in affinity for PIFtide", "setting": "PIFtide [1]", "value": "~10", "unit": "fold"}]}
{"binder": "B4", "values": [{"measurement": "fold decrease in affinity for PIFtide", "setting": "PIFtide [2]", "value": "~10", "unit": "fold"}]}
{"binder": "B5", "values": [{"measurement": "increase of PDK1 activity towards T308tide", "setting": "GST-PDK1 (wild type)", "value": "≤ 4", "unit": "fold"}, {"measurement": "increase of TM50 (heat inactivation of GST-PDK1)", "setting": "GST-PDK1 (wild type)", "value": "8 to 10", "unit": "°C"}, {"measurement": "inhibition by 2 µM PIFtide of the activation of S6K1[T412E] by wild type PDK1", "setting": "GST-PDK1 (wild type)", "value": "> 20", "unit": "fold"}, {"measurement": "inhibition by 2 µM PIFtide of the activation of S6K1-T2[T412E] and SGK1[T422D] by the PDK1 mutant", "setting": "GST-PDK1 Q150A", "value": "~50", "unit": "%"}, {"measurement": "inhibition by 35 µM PIFtide of the activation of S6K1-T2[T412E] and SGK1[T422D] by the PDK1 mutant", "setting": "GST-PDK1 Q150A", "value": "> 95", "unit": "%"}, {"measurement": "stimulation of the PDK1 mutant towards T308tide by PIF", "setting": "GST-PDK1 Q150A", "value": "~2", "unit": "fold"}, {"measurement": "inhibition by 2 µM PIFtide of the activation of S6K1-T2[T412E] and SGK1[T422D] by the PDK1 mutant", "setting": "GST-PDK1 K115A", "value": "~50", "unit": "%"}, {"measurement": "inhibition by 35 µM PIFtide of the activation of S6K1-T2[T412E] and SGK1[T422D] by the PDK1 mutant", "setting": "GST-PDK1 K115A", "value": "> 95", "unit": "%"}, {"measurement": "inhibition by 2 µM PIFtide of the activation of S6K1-T2[T412E] and SGK1[T422D] by the PDK1 mutant", "setting": "GST-PDK1 L155A", "value": "~50", "unit": "%"}, {"measurement": "inhibition by 35 µM PIFtide of the activation of S6K1-T2[T412E] and SGK1[T422D] by the PDK1 mutant", "setting": "GST-PDK1 L155A", "value": "> 95", "unit": "%"}]}
